This is an account of results in PMC5706989 (Molecular Biology of the Cell, 2017).

For orientation: stoichiometry N means the number of molecules, sites or subunits per partner or assembly.

Data set [1] concerns the molecule itself. Briefly: two-colour scanning fluorescence.
Data set [2] concerns the molecule itself. As to the kind of experiment: one-colour scanning fluorescence correlation spectroscopy.
Data set [3] deals with the molecule itself. As to the kind of experiment: two-colour scanning fluorescence. The source holds these as a separate data set.
Data set [4] deals with the molecule itself. As to the kind of experiment: two-colour scanning fluorescence. The source holds these as a separate data set.
Data set [5] concerns the molecule itself. As to the kind of experiment: one-colour scanning fluorescence correlation spectroscopy. This is another data set of the same source.
Data set [6] concerns the molecule itself. Briefly: two-colour scanning fluorescence. This is another data set of the same source.

B1: APLP1–yellow fluorescent protein (APLP1-YFP) (natural protein, UniProt P51693 39-650, looked up)
chain: SLAGGSPGAAEAPGSAQVAGLCGRLTLHRDLRTGRWEPDPQRSRRCLRDPQRVLEYCRQMYPELQIARVEQATQAIPMERWCGGSRSGSCAHPHHQVVPFRCLPGEFVSEALLVPEGCRFLHQERMDQCESSTRRHQEAQEACSSQGLILHGSGMLLPCGSDRFRGVEYVCCPPPGTPDPSGTAVGDPSTRSWPPGSRVEGAEDEEEEESFPQPVDDYFVEPPQAEEEEETVPPPSSHTLAVVGKVTPTPRPTDGVDIYFGMPGEISEHEGFLRAKMDLEERRMRQINEVMREWAMADNQSKNLPKADRQALNEHFQSILQTLEEQVSGERQRLVETHATRVIALINDQRRAALEGFLAALQADPPQAERVLLALRRYLRAEQKEQRHTLRHYQHVAAVDPEKAQQMRFQVHTHLQVIEERVNQSLGLLDQNPHLAQELRPQIQELLHSEHLGPSELEAPAPGGSSEDKGGLQPPDSKDDTPMTLPKGSTEQDAASPEKEKMNPLEQYERKVNASVPRGFPFHSSEIQRDELAPAGTGVSREAVSGLLIMGAGGGSLIVLSMLLLRRKKPYGAISHGVVEVDPMLTLEEQQLRELQRHGYENPTYRFLEERP
Consider B1, for which the “stoichiometry N” value in data set [1] was found to be 21; in data set [2] it was 2; in data set [3], 6; in data set [4], 3; in data set [5], 1.9; in data set [6], 1.8.
